{"source": "paper doi:10.1101/2021.10.07.463531", "binders": {"B1": {"name": "GFP-Bicc1 (natural protein)", "chain": "MASQSEPGYLAAAQSDPGSNSERSTDSPVAGSEDDLVAAAPLLHSPEWSEERFRVDRKKLEAMLQAAAEGKGRSGEDFFQKIMEETNTQIAWPSKLKIGAKSKKDPHIKVSGKKEDVKEAKEMIMSVLDTKSNRVTLKMDVSHTEHSHVIGKGGNNIKKVMEDTGCHIHFPDSNRNNQAEKSNQVSIAGQPAGVESARARIRELLPLVLMFELPIAGILQPVPDPNTPSIQHISQTYSVSVSFKQRSRMYGATVTVRGSQNNTNAVKEGTAMLLEHLAGSLASAIPVSTQLDIAAQHHLFMMGRNGSNVKHIMQRTGAQIHFPDPSNPQKKSTVYLQGTIESVCLARQYLMGCLPLVLMFDMKEDIEVDPQVIAQLMEQLDVFISIKPKPKQPSKSVIVKSVERNALNMYEARKCLLGLESSGVSIATSLSPASCPAGLACPSLDILASAGLGLTGLGLLGPTTLSLNTSATPNSLLNALNTSVSPLQSSSSGTPSPTLWAPPIANTASATGFSTIPHLMLPSTAQATLTNILLSGVPTYGHTAPSPPPGLTPVDVHINSMQTEGKNISASINGHVQPANMKYGPLSTSSLGEKVLSSNHGDPSMQTAGPEQASPKSNSVEGCNDAFVEVGMPRSPSHSGNAGDLKQMLGASKVSCAKRQTVELLQGTKNSHLHGTDRLLSDPELSATESPLADKKAPGSERAAERAAAAQQKSERARLASQPTYVHMQAFDYEQKKLLATKAMLKKPVVTEVRTPTNTWSGLGFSKSMPAETIKELRRANHVSYKPTMTTAYEGSSLSLSRSSSREHLASGSESDNWRDRNGIGPMGHSEFSAPIGSPKRKQNKSREHYLSSSNYMDCISSLTGSNGCNLNSCFKGSDLPELFSKLGLGKYTDVFQQQEIDLQTFLTLTDQDLKELGITTFGARRKMLLAISELSKNRRKLFEPPNASCTSFLEGGASGRLPRQYHSDIASVSGRW"}}, "target": "HA-Bicc1 with mutation D or with deletion of the KH tandem repeat", "assay": "co-IP", "data": [{"binder": "B1", "values": [{"measurement": "percent reduction of co-immunoprecipitated GFP-Bicc1 relative to WT HA-Bicc1", "value": "60 to 75", "unit": "%"}]}]}
